Experimental data reported in patent publication US20250043302A1, “MUTATED HYDROXYPHENYLPYRUVATE DIOXYGENASE POLYPEPTIDE, AND CODING GENE AND USE THEREOF” (BEIJING DABEINONG BIOTECHNOLOGY CO., LTD., priority 2021, published 2025).

What was measured:
Type in all cases: in vivo
[1] = tested on: Arabidopsis thaliana T1 plants; assay: Topramezone tolerance of transgenic Arabidopsis thaliana T1 plants (spray, bleached leaf area grade, damage score); details: 7 DAT, Table 4; for Classification and statistics of the grade of pesticide damage: Grade 0 / Classification and statistics of the grade of pesticide damage: Grade 1 / Classification and statistics of the grade of pesticide damage: Grade 2 / Classification and statistics of the grade of pesticide damage: Grade 3: number of plants; for Scores: pesticide damage score 0-100
Procedure, shortened: (§1)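 Damage was assessed by bleaching grade (0 none; 1 <50%; 2 >50%; 3 100% of leaf area) one week after spraying. Sprays on 18-day-old T1 and wild-type plants used field-rate multiples: topramezone 25–200, isoxaflutole 35–280, mesotrione 52.5–420 g ai/ha.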

[2] = tested on: Arabidopsis thaliana T1 plants; assay: Isoxaflutole tolerance of transgenic Arabidopsis thaliana T1 plants (spray, bleached leaf area grade, damage score); design: Scores (pesticide damage): scale not given here; details: spray, Arabidopsis thaliana T1 plants; for Classification and statistics of the grade of pesticide damage: Grade 0 (number of plants) / Classification and statistics of the grade of pesticide damage: Grade 1 (number of plants) / Classification and statistics of the grade of pesticide damage: Grade 2 (number of plants) / Classification and statistics of the grade of pesticide damage: Grade 3 (number of plants): 16 plants
Procedure, shortened: as §1

[3] = tested on: Arabidopsis thaliana T1 plants; assay: Mesotrione tolerance of transgenic Arabidopsis thaliana T1 plants (spray, bleached leaf area grade, damage score); design: Scores: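 damage score 0-100 computed as Σ(N×S)/(T×M)×100 over grades 0-3 with higher meaning more damage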; details: Arabidopsis thaliana T1 plants; for Grade 0 (classification and statistics of the grade of pesticide damage; number of plants) / Grade 1 (classification and statistics of the grade of pesticide damage; number of plants) / Grade 2 (classification and statistics of the grade of pesticide damage; number of plants) / Grade 3 (classification and statistics of the grade of pesticide damage; number of plants): 16 plants
Procedure, shortened: as §1

[4] = isoxaflutole 35 g ai/ha (0.5x field concentration)
[5] = isoxaflutole 70 g ai/ha (1x field concentration)

B1: NtHPPDm-F372A-F383W-02: nucleotide sequence encoding Nicotiana tabacum HPPD with F372A+F383W; vector DBN11753 (nucleic acid)
DNA: ATGGGGAAGCTGGAAACCGTCACTACCACCTCGGCGGCGGCTGCTGATGATTCATCGGAATTAACAACCAACTTCAAGTTGGTTGGTTTCAAAAATTTCATCAGAACAAACCCAAGGTCTGATTTCTTCTCCGTCAAGAGCTTCCACCACATTGAATTCTGGTGCGGTGACGCAACTAACACAGCGCGCCGCTTCTCATGGAGCCTAGGGATGCCAATTGCAGCTAAGAGTGATCTTTCAACAGGAAACAGCGTGCACGCCTCCTACCTCCTCCGGCCCGTAAGCGGTTCTTTACAGTTCCTGTTTACAGCACCATATTCACCTTCTATTTCGACTCCTAGTTCAGCTGCAATCCCATCTTTTTCCACATCTACACATAGGTCTTTCACTACAACACATGGACTGGGTGTTCGTGCCGTCGCCCTCGAGGTGGAGAATGCTTATACTGCCTTCAGTGCTTCTGTCTCCAGAGGCGCCAAGCCAATGTTTGAACCTGTGACAATTGATGAACAAGTAGCAATGGCTGAGGTTCATTTGTACGGCGATGTTGTGCTGCGATTTGTTTCTTATCTCAAGGACGCCGACAACCTGGTCTTCCTGCCGGGGTTTGAGGCCATGGATGAAACTGCTAGTTACAAAGAACTTGATTATGGAATACGGCGTTTGGATCATGCTGTGGGCAATGTTCCAGAACTCGGCCCGGTAGTTGATTACATCAAGAGGTTTACTGGATTTCATGAATTTGCAGAGTTTACCGCTGAAGATGTGGGAACTGCGGAAAGTGGGCTAAACTCCATGGTTCTTGCGAACAATGATGAGACTGTGCTCCTCCCTCTGAATGAGCCTGTTTATGGCACCAAAAGAAAATCTCAGATACAAACATATCTTGAGCATAATGAAGGAGCTGGGGTGCAGCACCTTGCTCTTGTTACTGAAGACATCTTTAAGACTTTGACAGAGATGAGGAAGAGAAGTGGAGTTGGAGGTTTTGAGTTCATGCCTTCCCCCCCGCCGACCTACTACAAGAATTTGAAGAACAGGGCTGGTGACGTCCTCTCAGACGAGCAGATTTTGGCTTGTGAGGAGCTTGGCATCTTGGTAGACCGGGACGACCAGGGGACGCTTCTCCAAATTGCCACAAAACCCGTCGGGGACCGCCCCACCATATGGATTGAGATCATCCAGAGGATAGGCTGCATGCTTAAAGATGGAAAAGGTCAAGTGTACCAGAAGGGTGGTTGTGGTGGGTTTGGCAAAGGAAATTTTTCTGAGCTGTTCAGAAGCATAGAAGAATATGAGAAGACACTGGAAGCAAAACAAGCAAATCAAGTTGCGGCCGCGTGA
modifications: NtHPPDm-F372A-F383W-02 Nucleotide Sequence
notes: vector DBN11753
Classification and statistics of the grade of pesticide damage: Grade 0 ([1]; topramezone 25 g ai/ha (1×)): 2
Classification and statistics of the grade of pesticide damage: Grade 1 ([1]; topramezone 25 g ai/ha (1×)): 13
Classification and statistics of the grade of pesticide damage: Grade 2 ([1]; topramezone 25 g ai/ha (1×)): 1
Classification and statistics of the grade of pesticide damage: Grade 3 ([1]; topramezone 25 g ai/ha (1×)): 0
Classification and statistics of the grade of pesticide damage: Grade 0 ([1]; topramezone 100 g ai/ha (4×)): 0
Classification and statistics of the grade of pesticide damage: Grade 1 ([1]; topramezone 100 g ai/ha (4×)): 1
Classification and statistics of the grade of pesticide damage: Grade 2 ([1]; topramezone 100 g ai/ha (4×)): 13
Classification and statistics of the grade of pesticide damage: Grade 3 ([1]; topramezone 100 g ai/ha (4×)): 2
Scores ([1]; topramezone 25 g ai/ha (1×)): 31
Scores ([1]; topramezone 100 g ai/ha (4×)): 69
Resistance evaluation ([1]; topramezone 25 g ai/ha (1×)): moderately
Resistance evaluation ([1]; topramezone 100 g ai/ha (4×)): non-resistant (non-resistant plants (scores 68-100))
Resistance evaluation [2, 4]: Moderately
Scores (pesticide damage) [2, 4]: 33
Classification and statistics of the grade of pesticide damage: Grade 0 (number of plants) [2, 4]: 1
Classification and statistics of the grade of pesticide damage: Grade 1 (number of plants) [2, 4]: 14
Classification and statistics of the grade of pesticide damage: Grade 2 (number of plants) [2, 4]: 1
Classification and statistics of the grade of pesticide damage: Grade 3 (number of plants) [2, 4]: 0
Resistance evaluation [2, 5]: Poorly
Scores (pesticide damage) [2, 5]: 65
Classification and statistics of the grade of pesticide damage: Grade 0 (number of plants) [2, 5]: 0
Classification and statistics of the grade of pesticide damage: Grade 1 (number of plants) [2, 5]: 3
Classification and statistics of the grade of pesticide damage: Grade 2 (number of plants) [2, 5]: 11
Classification and statistics of the grade of pesticide damage: Grade 3 (number of plants) [2, 5]: 2
Resistance evaluation ([3]; mesotrione 52.5 g ai/ha): Poorly resistant
Scores ([3]; mesotrione 52.5 g ai/ha): 35
Grade 0 (classification and statistics of the grade of pesticide damage; number of plants) ([3]; mesotrione 52.5 g ai/ha): 1
Grade 1 (classification and statistics of the grade of pesticide damage; number of plants) ([3]; mesotrione 52.5 g ai/ha): 13
Grade 2 (classification and statistics of the grade of pesticide damage; number of plants) ([3]; mesotrione 52.5 g ai/ha): 2
Grade 3 (classification and statistics of the grade of pesticide damage; number of plants) ([3]; mesotrione 52.5 g ai/ha): 0
Resistance evaluation ([3]; mesotrione 105 g ai/ha): Non-resistant
Scores ([3]; mesotrione 105 g ai/ha): 69
Grade 0 (classification and statistics of the grade of pesticide damage; number of plants) ([3]; mesotrione 105 g ai/ha): 0
Grade 1 (classification and statistics of the grade of pesticide damage; number of plants) ([3]; mesotrione 105 g ai/ha): 1
Grade 2 (classification and statistics of the grade of pesticide damage; number of plants) ([3]; mesotrione 105 g ai/ha): 13
Grade 3 (classification and statistics of the grade of pesticide damage; number of plants) ([3]; mesotrione 105 g ai/ha): 2
